Measurements from patent US6670183B2, “88kDa tumorigenic growth factor and antagonists” (A & G Pharmaceutical, Inc., priority 1997, dated 2003).
Where two headings read alike, the source gives them in different places.

Legend:
[1] = system: mouse mammary epithelial cell line C57MG; test: DNA synthesis (^3H-thymidine incorporation) in serum-starved C57MG cells; type: cell-based
Method: We investigated the effect of GP88 on the proliferation of a variety of cell lines including fibroblasts and mammary epithelial cells.
The ability of GP88 purified from PC cells (upper panel) and recombinant GP88, rGP88 (lower panel), to stimulate DNA synthesis in C57MG cells was measured by incorporation of ^3H-thymidine in serum-starved quiescent cells.

[2] = system: GP88 cell surface receptors on CCL64 cells; test: ^125I-GP88 binding to CCL64 cells, Scatchard analysis; design: species or system mink; details: 2 hours at 25° C.
Method: Recombinant GP88 (rGP88) was iodinated by the chloramine T method at 4° C. Other known methods can also be applied. Briefly, 1 μg of GP88 was incubated for 2 min with ^125I Na (100 μCi) that had been preincubated for 90 seconds with 2 μg chloramine T. The reaction was quenched with the addition of 100 μl saturated tyrosine, 10 μl of a 1% solution of bovine serum albumin (BSA) and 2 μg of sodium metabisulfite. After addition of 100 μl PBS, the iodinated protein was separated from free Na^125I by gel filtration on a Sephadex-G50 column that had been preincubated with PBS containing 1% bovine serum albumin and then extensively washed with PBS to reduce non-specific binding. The labeled proteins were eluted with PBS and fractions monitored for radioactivity. Amount of incorporated radioactivity was estimated by TCA precipitation. Specific activity of ^125I-GP88 was typically 30-50 μCi/μg. […]
The example provided here describes binding assay with the mink lung epithelial cell line CCL64 but has also been applied to several cell lines including the 1246, PC cell lines and the mammary epithelial cell line C57MG. […] The cells were harvested by centrifugation, washed with culture medium and counted with a hemocytometer. […] Cell pellets were counted with a gamma counter. […]

B1: rGP88: recombinant mouse GP88 expressed in baculovirus infected Sf9 insect cells; iodinated as binding ligand (protein)
chain: TQCPDGQFCPVACCLDQGGANYSCCNPLLDTWPRITSHHLDGSCQTHGHCPAGYSCLLTVSGTSSCCPFSKGVSCGDGYHCCPQGFHCSADGKSCFQMSDNPLGAVQCPGSQFECPDSATCCIMVDGSWGCCPMPQASCCEDRVHCCPHGASCDLVHTRCVSPTGTHTLLKKFPAQKTNSAVSLPFSVVCPDAKTQCPDDSTCCELPTGKYGCCPMPNAICCSDHLHCCPQDTVCDLIQSKCLSKNYTTDLLTKLPGYPVKEVKCDMEVSCPEGYTCCRLNTGAWGCCPFAKAVCCDDHIHCCPAGFQCHTEKGTCEMGILQVGWMKKVIAPLRLPDPQILKSDTPCDDFTRCPTNNTCCKLNSGDWGCCPIPEAVCCSDNQHCCPQGFTCLAQGYCQKGDTMVAGLEKIPARQTTPLQIGDIGCDQHTSCPVGQTCCPSLKGSWACCQLPHAVCCEDRQHCCPAGYTCNVKARTCEKDVDFIQPPVLLTLGPKVGNVECGEGHFCHDNQTCCKDSAGVWACCPYLKGVCCRDGRHCCPGGFHCSARGTKCLRKKIPRWDMFLRDPVPRPLL
With B1 the “increase in DNA synthesis” value ([1]; 150 ng/ml (2 nM)) was 5 fold, the “biological activity compared with PC cell derived GP88” value ([1]; FIG. 6) was “identical to that of GP88 purified from PC cells” and the Kd ([2]; read-out: Kd, high affinity class of receptors) was 0.043 nM. For the same molecule, the Kd ([2]; read-out: Kd, low affinity class of receptors) was 3.9 nM.
